This is an account of results in publication PMC5419422 (Science immunology, 2017).

The assay concerns the target recombinant human HIS-tagged CFP (human, UniProt P27918 28-469). The assay can be described thus: SPR. (In SPR one partner is held on a chip, and binding of the other changes the refractive index at the surface.)

Sequence of recombinant human HIS-tagged CFP (P27918 28-469): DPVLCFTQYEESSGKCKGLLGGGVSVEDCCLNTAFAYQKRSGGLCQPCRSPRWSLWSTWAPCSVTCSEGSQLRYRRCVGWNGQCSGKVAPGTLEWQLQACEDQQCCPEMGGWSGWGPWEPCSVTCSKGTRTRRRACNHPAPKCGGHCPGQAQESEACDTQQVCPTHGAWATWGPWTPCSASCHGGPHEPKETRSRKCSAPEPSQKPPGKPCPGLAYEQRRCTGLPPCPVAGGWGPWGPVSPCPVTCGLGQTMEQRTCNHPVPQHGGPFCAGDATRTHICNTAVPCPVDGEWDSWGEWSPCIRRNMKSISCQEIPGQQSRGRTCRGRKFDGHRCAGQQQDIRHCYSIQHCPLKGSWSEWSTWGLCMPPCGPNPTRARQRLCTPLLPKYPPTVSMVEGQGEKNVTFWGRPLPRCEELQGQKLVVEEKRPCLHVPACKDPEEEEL

B1: mouse NKp46-Fc (Fc fusion)
chain: QRINTEKETLPKPIIWAKPSIMVTNGNSVNIWCQGAQSASEYQLYFEGSFFALERPKPSRSMNKVRFFISQMTSHTAGIYTCFYQSGELWSKSSNPLKLVVTGLYDTPNLWVYPQPEVTLGENVTFFCQLKTATSKFFLLKERGSNHIQNKYGNIQAEFPMGPVTRAHRGTYRCFGSYNDYAWSFPSEPVTLLITGGVENSSLAPTDPTSSLDYWEFDLSTNESGLQKDSAFWDHTTQN
Consider B1, for which the binding result is recorded as “binds”.
